Here are results for five molecules from patent US12698507B2, “Methods and compositions for conferring and/or enhancing herbicide tolerance using protoporphyrinogen IX oxidase of various cyanobacteria or variant thereof” (FarmHannong Co., Ltd., priority 2019, dated 2026).

The experiment concerns PPO-deficient BT3 E. coli (ΔPPO). As to the kind of experiment: PPO-inhibiting herbicide tolerance test of PPO variants in E. coli (growth on herbicide-containing LB agar). The experiment is classed as cell-based. Conditions: CyPPO19 variants in BT3 (ΔPPO) E. coli; LB agar with 0 to 2,000 μM herbicide, 37° C., dark, 16-20 hours. An excerpt: To enhance the PPO-inhibiting herbicide resistance of CyPPO19 and CyPPO18, PPO variant genes of the above example 2 were constructed. They were transformed to BT3 (ΔPPO) strain which is deficient of PPO activity and cultured in LB media with PPO-inhibiting herbicide, thereby examining whether growth of transformed BT3 was not inhibited.
BT3 competent cells were transformed with the pET303-CyPPO19 (wild type), pET303-CyPPO18 (wild type) plasmids, and those with a mutation(s) constructed (refer to example 2) via heat shock method, and were cultured in LB agar media containing ampicillin.
Single colony transformed with each CyPPO gene was cultured in 3 mL of LB broth (LPSS) containing ampicillin for more than 12 hours, and then was subcultured in LB broth until absorbance (OD600) reached 0.5 to 1. Then, it was diluted with LB broth to OD600=0.5. Again, the diluted solution was serially diluted 4 times by a factor of one tenth.
The LB agar media (LB 25 g/L, Bacto agar 12 g/L) containing ampicillin (100 μg/mL) and 0 to 2,000 μM of various herbicides were prepared. Herbicide solution stocks were all prepared in DMSO.
Then, 10 μL of each diluted solution of E. coli was dropped on the plate and cultured at 37° C. under dark for 16-20 hours. PPO-inhibiting herbicide resistance was evaluated with the extent of E. coli growth containing each gene was observed.
The extent of herbicide resistance was evaluated by the relative growth of variants to that of wild type, and listed in Tables 9 and 10 and FIGS. 3 to 32.
In Tables 9 and 10, the tolerance level of variants showing equivalent resistance to wild type was presented as ‘−’, and was done as ‘+’ per each 10-fold resistance until ‘+++++’ as maximal resistance.
FIGS. 3 to 30 and FIGS. 31 and 32 show the transformed E. coli growth result of CyPPO19 WT and its variants and CyPPO18 WT and its variants, respectively. The concentrations of herbicides were written above the photographs of tolerance test. A 10-fold dilution series of spots were shown from OD600=0.5 of the leftmost spot to OD600=0.00005 of the rightmost one.

B1: CyPPO19 R89A + V305M + F360T: variant of CyPPO19 PPO protein (SEQ ID NO: 1) (protein)
chain: MSEVDVAIVGGGLSGLSLAWRLQQSAPQYSVVLLEASDRLGGNITTQTAEGFVWELGPNSFAPTPALLQLIAEVGLQSELIRGDRHLPAYIYWRGQLYPLQPTRPLALATSNLLSPWGKVRAALGALGFVPPYLGSGDESVNSFFRRHLGQEVAERLVAPFVSGVYAGDPQQLSAAAAFRRIAQLEKLGGGLIAGALHLRRQQAPKPKPPTSVQMRPGELGSFKEGLAALPRAIAQQLKAPIHLQTPVQEITPDPKGGYLLRSGEQTWRARSVVLATPAYQTAELVAPFQPAIARVLATIPYPTMACVVLAYPAGLGRSVRPGFGVLIPRSQGIRTLGTIWSSCLFPQRTPAGWQVFTSTIGGATDPDLASLSEEAIVQQVQQDLNRLLDLPAAKARLLGMKVWRRAIPQYMVGYPEQWQQVTHALSQTPGLFLCSNYAEGVALGDRVEHGNRTAAAVAAYLSGGQP
modifications: Synthetic_PPO of Thermosynechococcus elongatus PKUAC-SCTE542 (comprising GenBank No. CP032152.1)
As to B1, the “tolerance level relative to wild type, Carfentrazone” value is “++ (‘+’ per each 10-fold resistance)”; the “tolerance level relative to wild type, Flumioxazin” value is on record as “+++++ (until ‘+++++’ as maximal resistance)”; the “tolerance level relative to wild type, Fomesafen” value is reported as “+++ (‘+’ per each 10-fold resistance)”; the “tolerance level relative to wild type, Oxyfluorfen” value is listed as “+++ (‘+’ per each 10-fold resistance)”. Besides, the “tolerance level relative to wild type, Saflufenacil” value was “+++++ (until ‘+++++’ as maximal resistance)”; the “tolerance level relative to wild type, Sulfentrazone” value is reported as “+++++ (until ‘+++++’ as maximal resistance)”; the “tolerance level relative to wild type, Tiafenacil” value is on record as “+++++ (until ‘+++++’ as maximal resistance)”.

B2: CyPPO19 R89A + I408R + F360M: variant of CyPPO19 PPO protein (SEQ ID NO: 1) (protein)
chain: MSEVDVAIVGGGLSGLSLAWRLQQSAPQYSVVLLEASDRLGGNITTQTAEGFVWELGPNSFAPTPALLQLIAEVGLQSELIRGDRHLPAYIYWRGQLYPLQPTRPLALATSNLLSPWGKVRAALGALGFVPPYLGSGDESVNSFFRRHLGQEVAERLVAPFVSGVYAGDPQQLSAAAAFRRIAQLEKLGGGLIAGALHLRRQQAPKPKPPTSVQMRPGELGSFKEGLAALPRAIAQQLKAPIHLQTPVQEITPDPKGGYLLRSGEQTWRARSVVLATPAYQTAELVAPFQPAIARVLATIPYPTVACVVLAYPAGLGRSVRPGFGVLIPRSQGIRTLGTIWSSCLFPQRTPAGWQVFTSMIGGATDPDLASLSEEAIVQQVQQDLNRLLDLPAAKARLLGMKVWRRARPQYMVGYPEQWQQVTHALSQTPGLFLCSNYAEGVALGDRVEHGNRTAAAVAAYLSGGQP
modifications: Synthetic_PPO of Thermosynechococcus elongatus PKUAC-SCTE542 (comprising GenBank No. CP032152.1)
For B2, the “tolerance level relative to wild type, Carfentrazone” value is given as “+ (‘+’ per each 10-fold resistance)”; the “tolerance level relative to wild type, Flumioxazin” value is “++++ (‘+’ per each 10-fold resistance)”; the “tolerance level relative to wild type, Fomesafen” value is on record as “+++ (‘+’ per each 10-fold resistance)”; the “tolerance level relative to wild type, Oxyfluorfen” value is “++ (‘+’ per each 10-fold resistance)”. Also, the “tolerance level relative to wild type, Saflufenacil” value was “++++ (‘+’ per each 10-fold resistance)”; the “tolerance level relative to wild type, Sulfentrazone” value was “+++ (‘+’ per each 10-fold resistance)”; the “tolerance level relative to wild type, Tiafenacil” value is listed as “+++ (‘+’ per each 10-fold resistance)”.

B3: CyPPO19 R89A + L327T + F360T: variant of CyPPO19 PPO protein (SEQ ID NO: 1) (protein)
chain: MSEVDVAIVGGGLSGLSLAWRLQQSAPQYSVVLLEASDRLGGNITTQTAEGFVWELGPNSFAPTPALLQLIAEVGLQSELIRGDRHLPAYIYWRGQLYPLQPTRPLALATSNLLSPWGKVRAALGALGFVPPYLGSGDESVNSFFRRHLGQEVAERLVAPFVSGVYAGDPQQLSAAAAFRRIAQLEKLGGGLIAGALHLRRQQAPKPKPPTSVQMRPGELGSFKEGLAALPRAIAQQLKAPIHLQTPVQEITPDPKGGYLLRSGEQTWRARSVVLATPAYQTAELVAPFQPAIARVLATIPYPTVACVVLAYPAGLGRSVRPGFGVTIPRSQGIRTLGTIWSSCLFPQRTPAGWQVFTSTIGGATDPDLASLSEEAIVQQVQQDLNRLLDLPAAKARLLGMKVWRRAIPQYMVGYPEQWQQVTHALSQTPGLFLCSNYAEGVALGDRVEHGNRTAAAVAAYLSGGQP
modifications: Synthetic_PPO of Thermosynechococcus elongatus PKUAC-SCTE542 (comprising GenBank No. CP032152.1)
For the molecule B3, the “tolerance level relative to wild type, Carfentrazone” value was “+ (‘+’ per each 10-fold resistance)”; the “tolerance level relative to wild type, Flumioxazin” value is recorded as “+++++ (until ‘+++++’ as maximal resistance)”; the “tolerance level relative to wild type, Fomesafen” value is reported as “+++++ (until ‘+++++’ as maximal resistance)”; the “tolerance level relative to wild type, Oxyfluorfen” value was “+++ (‘+’ per each 10-fold resistance)”. Further, the “tolerance level relative to wild type, Saflufenacil” value was “+++++ (until ‘+++++’ as maximal resistance)”; the “tolerance level relative to wild type, Sulfentrazone” value is on record as “+++++ (until ‘+++++’ as maximal resistance)”; the “tolerance level relative to wild type, Tiafenacil” value is listed as “+++++ (until ‘+++++’ as maximal resistance)”.

B4: CyPPO19 R89A + L327T + F360I: variant of CyPPO19 PPO protein (SEQ ID NO: 1) (protein)
chain: MSEVDVAIVGGGLSGLSLAWRLQQSAPQYSVVLLEASDRLGGNITTQTAEGFVWELGPNSFAPTPALLQLIAEVGLQSELIRGDRHLPAYIYWRGQLYPLQPTRPLALATSNLLSPWGKVRAALGALGFVPPYLGSGDESVNSFFRRHLGQEVAERLVAPFVSGVYAGDPQQLSAAAAFRRIAQLEKLGGGLIAGALHLRRQQAPKPKPPTSVQMRPGELGSFKEGLAALPRAIAQQLKAPIHLQTPVQEITPDPKGGYLLRSGEQTWRARSVVLATPAYQTAELVAPFQPAIARVLATIPYPTVACVVLAYPAGLGRSVRPGFGVTIPRSQGIRTLGTIWSSCLFPQRTPAGWQVFTSIIGGATDPDLASLSEEAIVQQVQQDLNRLLDLPAAKARLLGMKVWRRAIPQYMVGYPEQWQQVTHALSQTPGLFLCSNYAEGVALGDRVEHGNRTAAAVAAYLSGGQP
modifications: Synthetic_PPO of Thermosynechococcus elongatus PKUAC-SCTE542 (comprising GenBank No. CP032152.1)
Consider B4, for which the “tolerance level relative to wild type, Carfentrazone” value is “+ (‘+’ per each 10-fold resistance)”; the “tolerance level relative to wild type, Flumioxazin” value is “++++ (‘+’ per each 10-fold resistance)”; the “tolerance level relative to wild type, Fomesafen” value is recorded as “++ (‘+’ per each 10-fold resistance)”; the “tolerance level relative to wild type, Oxyfluorfen” value is “+ (‘+’ per each 10-fold resistance)”. Besides, the “tolerance level relative to wild type, Saflufenacil” value is on record as “++ (‘+’ per each 10-fold resistance)”; the “tolerance level relative to wild type, Sulfentrazone” value was “+++ (‘+’ per each 10-fold resistance)”; the “tolerance level relative to wild type, Tiafenacil” value is listed as “++++ (‘+’ per each 10-fold resistance)”.

B5: CyPPO19 R89A + L327T + F360M: variant of CyPPO19 PPO protein (SEQ ID NO: 1) (protein)
chain: MSEVDVAIVGGGLSGLSLAWRLQQSAPQYSVVLLEASDRLGGNITTQTAEGFVWELGPNSFAPTPALLQLIAEVGLQSELIRGDRHLPAYIYWRGQLYPLQPTRPLALATSNLLSPWGKVRAALGALGFVPPYLGSGDESVNSFFRRHLGQEVAERLVAPFVSGVYAGDPQQLSAAAAFRRIAQLEKLGGGLIAGALHLRRQQAPKPKPPTSVQMRPGELGSFKEGLAALPRAIAQQLKAPIHLQTPVQEITPDPKGGYLLRSGEQTWRARSVVLATPAYQTAELVAPFQPAIARVLATIPYPTVACVVLAYPAGLGRSVRPGFGVTIPRSQGIRTLGTIWSSCLFPQRTPAGWQVFTSMIGGATDPDLASLSEEAIVQQVQQDLNRLLDLPAAKARLLGMKVWRRAIPQYMVGYPEQWQQVTHALSQTPGLFLCSNYAEGVALGDRVEHGNRTAAAVAAYLSGGQP
modifications: Synthetic_PPO of Thermosynechococcus elongatus PKUAC-SCTE542 (comprising GenBank No. CP032152.1)
As for B5, the “tolerance level relative to wild type, Carfentrazone” value was “+ (‘+’ per each 10-fold resistance)”; the “tolerance level relative to wild type, Flumioxazin” value is recorded as “++++ (‘+’ per each 10-fold resistance)”; the “tolerance level relative to wild type, Fomesafen” value is reported as “+++ (‘+’ per each 10-fold resistance)”; the “tolerance level relative to wild type, Oxyfluorfen” value is on record as “++ (‘+’ per each 10-fold resistance)”. Further, the “tolerance level relative to wild type, Saflufenacil” value is on record as “++ (‘+’ per each 10-fold resistance)”; the “tolerance level relative to wild type, Sulfentrazone” value was “++ (‘+’ per each 10-fold resistance)”; the “tolerance level relative to wild type, Tiafenacil” value is on record as “+++ (‘+’ per each 10-fold resistance)”.
